First the molecules themselves.
B3: LexA-CD2 tail truncation construct N (other, UniProt P0A7C2 1-202, looked up)
chain: MKALTARQQEVFDLIRDHISQTGMPPTRAEIAQRLGFRSPNAAEEHLKALARKGVIEIVSGASRGIRLLQEEEEGLPLVGRVAAGEPLLAQQHIEGHYQVDPSLFKPNADFLLRVSGMSMKDIGIMDGDLLAVHKTQDVRNGQVVVARIDDEVTVKRLKKQGNKVELLPENSEFKPIVVDLRQQSFTIEGLAVGVIRNGDWLNDEELETRAHRVATEERGRKPHQIPASTPQNPATSQHPPPPPGHRSQAPS
B5: LexA-CD2 tail truncation construct M (other, UniProt P0A7C2 1-202, looked up)
chain: MKALTARQQEVFDLIRDHISQTGMPPTRAEIAQRLGFRSPNAAEEHLKALARKGVIEIVSGASRGIRLLQEEEEGLPLVGRVAAGEPLLAQQHIEGHYQVDPSLFKPNADFLLRVSGMSMKDIGIMDGDLLAVHKTQDVRNGQVVVARIDDEVTVKRLKKQGNKVELLPENSEFKPIVVDLRQQSFTIEGLAVGVIRNGDWLNDEELETRAHRVATEERGRKPHQIPASTPQNPATSQHPPPPPGHRSQAPSHRPPPPGHRVQHQPQKR

The target of test [1] is T1, B42-CD2BP1S/ΔSH3 (CD2BP1S truncation construct lacking the terminal SH3 domain) (human, UniProt O43586 1-359).
T1 sequence: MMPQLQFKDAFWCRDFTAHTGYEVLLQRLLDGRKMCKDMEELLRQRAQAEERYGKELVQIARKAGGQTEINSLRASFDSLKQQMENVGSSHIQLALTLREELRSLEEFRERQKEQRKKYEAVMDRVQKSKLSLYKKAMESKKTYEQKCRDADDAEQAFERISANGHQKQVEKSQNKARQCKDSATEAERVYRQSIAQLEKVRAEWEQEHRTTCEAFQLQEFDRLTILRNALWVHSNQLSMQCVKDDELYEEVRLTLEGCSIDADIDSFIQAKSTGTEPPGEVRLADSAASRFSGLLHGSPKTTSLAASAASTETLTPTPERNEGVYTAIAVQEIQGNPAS
Put plainly: yeast two-hybrid, lacZ induction. As for the experimental part:
(§1) These tail variants were tested in the yeast two-hybrid system for their interaction with CD2BP1L or CD2BP1S as well as CD2BP1 truncations. In FIG. 7, open bars represent the region of CD2BP1 sequence with homology to yeast cdc15 protein aa 116–277; solid bars represent PEST rich regions in the CD2BP1 sequences; and hatched bars represent the SH3 domain in the CD2BP1 sequences. CD2BP1S/ΔSH3 represents CD2BP1 lacking the SH3 domain. $SH334$ includes the entire SH3 domain of CD2BP1 and 34 N-terminal amino acids. $SH366$ includes the SH3 domain of CD2BP1S and 66 N-terminal amino acids. $SH383$ includes the SH3 domain of CD2BP1L and 83 N-terminal amino acids of CD2BP1L. SH^3GGGGS includes the entire SH3 domain of CD2BP1 and an artificial N-terminal linker consisting of the residues shown.
(§2) The strength of the interaction between the CD2 variants and the CD2BP1 constructs was determined by lacZ induction.

Test [2] concerns the target T2, B42-CD2BP1L fusion (CD2BP1L in pJG4-5) (human, UniProt O43586 1-416).
T2 sequence: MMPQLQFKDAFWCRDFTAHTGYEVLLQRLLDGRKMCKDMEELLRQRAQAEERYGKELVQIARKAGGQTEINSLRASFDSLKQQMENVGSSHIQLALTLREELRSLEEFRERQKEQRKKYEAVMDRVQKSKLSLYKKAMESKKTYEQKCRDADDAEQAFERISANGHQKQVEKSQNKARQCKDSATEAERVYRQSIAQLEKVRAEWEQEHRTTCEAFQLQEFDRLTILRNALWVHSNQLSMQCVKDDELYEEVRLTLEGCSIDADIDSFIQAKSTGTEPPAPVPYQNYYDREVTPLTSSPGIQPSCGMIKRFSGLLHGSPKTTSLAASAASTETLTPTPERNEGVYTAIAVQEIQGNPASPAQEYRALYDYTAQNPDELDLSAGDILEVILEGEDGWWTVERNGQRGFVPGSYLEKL
The experiment in a line: yeast two-hybrid, lacZ induction. As to the method:
as §1, §2

The target in test [3] is T3, B42-CD2BP1S fusion (CD2BP1S in pJG4-5) (human, UniProt O43586 1-416).
T3 construct: also called clone #48; CD2BP1S/pJG4-5
T3 sequence: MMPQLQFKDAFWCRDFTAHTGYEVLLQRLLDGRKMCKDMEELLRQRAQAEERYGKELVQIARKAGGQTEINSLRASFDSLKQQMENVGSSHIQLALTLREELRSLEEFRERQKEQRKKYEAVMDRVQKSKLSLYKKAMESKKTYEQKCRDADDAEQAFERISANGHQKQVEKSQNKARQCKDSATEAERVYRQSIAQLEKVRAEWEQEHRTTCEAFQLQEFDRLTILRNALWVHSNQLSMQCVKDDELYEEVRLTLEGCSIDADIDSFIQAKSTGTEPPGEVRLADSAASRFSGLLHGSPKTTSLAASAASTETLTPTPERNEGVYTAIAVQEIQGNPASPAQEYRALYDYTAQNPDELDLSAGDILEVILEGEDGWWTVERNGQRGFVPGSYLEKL
Put plainly: yeast two-hybrid (LexA-CD2 tail variant / B42-CD2BP1 construct), lacZ induction. As to the method:
as §1, §2

For test [4], the target named is T4, human CD2 (wild-type, full length) (human, UniProt P06729 25-351).
T4 construct: whole, on cells; In pull-downs and immunoprecipitations it stood in Triton X-100 cell lysates; in staining and rosetting on the cell surface; also called wtCD2; hCD2wt (W33)
T4 sequence (looked up): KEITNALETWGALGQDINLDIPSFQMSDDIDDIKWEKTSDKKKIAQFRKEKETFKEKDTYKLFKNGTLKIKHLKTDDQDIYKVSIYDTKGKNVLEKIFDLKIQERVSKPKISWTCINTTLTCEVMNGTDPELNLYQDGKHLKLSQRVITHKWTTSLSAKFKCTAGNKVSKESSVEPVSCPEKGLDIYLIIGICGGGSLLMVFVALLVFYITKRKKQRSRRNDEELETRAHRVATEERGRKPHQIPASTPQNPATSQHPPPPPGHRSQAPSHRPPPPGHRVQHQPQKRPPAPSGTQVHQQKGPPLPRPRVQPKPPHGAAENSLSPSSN
Put plainly: cell-cell conjugates of activated human T cells with CD58-transfected CHO cells, immunofluorescence. As to the method: For image analysis of the CD2BP1 association with CD2, CD2 molecules on the activated T cell surface were induced to cluster by either a pair of anti-CD2 antibodies (anti-T11_2 plus anti-T11_3) or by CD58 ligand directed CD2 relocalization. For antibody crosslinking, activated T cells were incubated with anti-T11_2 mAb (5 μg/ml) and direct Texas red labeled anti-T11_3 mAb (1:50) in FACS buffer at 4° C. for 30 min, followed by two washes with FACS buffer and fixation by incubation in 2% paraformaldehyde/PBS. The cells were then permeabilized and stained with directly FITC-labeled anti-CD2BP1 mAb, followed by fluoroimaging analysis as described above. For ligand induced surface CD2 relocalization, activated T cells were incubated with CD58 transfected CHO cells prebound to coverslips to induce cellular conjugate formation as described previously (Li et al., 1996). After washing off the non-conjugated T cells and fixation in 1% parafornaldehyde, the conjugates were stained with anti-T11_3 antibody (1:50) at 4° C. for 30 min, followed by washing, permeabilization and staining with anti-CD2BP1 antibody as described above. The stained conjugates on the coverslips were then subject to fluoroimaging analysis. […]

Test [5] deals with T3, B42-CD2BP1S fusion (CD2BP1S in pJG4-5). Put plainly: yeast two-hybrid, lacZ induction. As to the method:
as §1, §2

For test [6], the target named is B5. Put plainly: yeast two-hybrid, lacZ induction. As to the method:
as §1, §2

The target of test [7] is B3. Put plainly: yeast two-hybrid, lacZ induction. As to the method: as §1, §2

The results in this text go back to patent US6689868 (Dana-Farber, dated 2004).

B1: LexA-CD2 cytoplasmic tail fusion (CD2 bait, aa 221-327) in pEG202 (other, UniProt P0A7C2 1-202, looked up)
chain: MKALTARQQEVFDLIRDHISQTGMPPTRAEIAQRLGFRSPNAAEEHLKALARKGVIEIVSGASRGIRLLQEEEEGLPLVGRVAAGEPLLAQQHIEGHYQVDPSLFKPNADFLLRVSGMSMKDIGIMDGDLLAVHKTQDVRNGQVVVARIDDEVTVKRLKKQGNKVELLPENSEFKPIVVDLRQQSFTIEGLAVGVIRNGDWLNDEELETRAHRVATEERGRKPHQIPASTPQNPATSQHPPPPPGHRSQAPSHRPPPPGHRVQHQPQKRPPAPSGTQVHQQKGPPLPRPRVQPKPPHGAAENSLSPSSN
notes: The CD2 aa numbers (tail ends at 327) appear to count on mature CD2, not on the precursor; also called CD2 tail; pEG202/CD2
B1: the results for the binding result in test [1], in test [2] and in test [3] were “no binding”, “binds” and “binds”, respectively.

B2: human CD58 (on transfected CHO cells) (ligand, UniProt P19256 29-250, looked up)
chain: FSQQIYGVVYGNVTFHVPSNVPLKEVLWKKQKDKVAELENSEFRAFSSFKNRVYLDTVSGSLTIYNLTSSDEDEYEMESPNITDTMKFFLYVLESLPSPTLTCALTNGSIEVQCMIPEHYNSHRGLIMYSWDCPMEQCKRNSTSIYFKMENDLPQKIQCTLSNPLFNTTSSIILTTCIPSSGHSRHRYALIPIPLAVITTCIVLYMNGILKCDRKPDRTNSN
notes: whole, on cells; also called CD58 ligand; human CD58-transfected CHO cells
For the molecule B2, the binding result in test [4] was “binds”.

Take B3: the binding result in test [1], in test [2] and in test [5] was “no binding” in each case.

B4: B42-SH334 (SH3 domain of CD2BP1 plus 34 N-terminal amino acids) (other, not shown: large carriers)
chain: ASAASTETLTPTPERNEGVYTAIAVQEIQGNPASPAQEYRALYDYTAQNPDELDLSAGDILEVILEGEDGWWTVERNGQRGFVPGSYLEKL
Regarding B4, the binding result in test [6] and in test [7] was “no binding” each time.

Turning to B5, the binding result in test [1], in test [2] and in test [5] was “no binding” throughout.
